According to patent US20170145472:

Target: T1, HCV NS3 helicase (Hepatitis C virus) (UniProt P26663)
T1 sequence: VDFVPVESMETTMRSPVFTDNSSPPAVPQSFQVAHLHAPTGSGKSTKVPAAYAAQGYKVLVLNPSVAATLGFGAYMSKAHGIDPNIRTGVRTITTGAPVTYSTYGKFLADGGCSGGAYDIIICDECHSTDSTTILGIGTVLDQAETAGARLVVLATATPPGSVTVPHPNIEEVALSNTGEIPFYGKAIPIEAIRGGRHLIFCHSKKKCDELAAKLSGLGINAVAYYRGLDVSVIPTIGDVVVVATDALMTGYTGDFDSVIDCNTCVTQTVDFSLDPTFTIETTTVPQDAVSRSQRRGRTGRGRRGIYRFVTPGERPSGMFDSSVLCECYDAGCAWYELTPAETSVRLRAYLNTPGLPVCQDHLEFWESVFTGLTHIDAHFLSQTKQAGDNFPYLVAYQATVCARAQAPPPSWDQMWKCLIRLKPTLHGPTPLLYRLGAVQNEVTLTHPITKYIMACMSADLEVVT

“GTGGGTAGGGCGGGTTGGTGGCGACGGCAGCGAGGCAGAGGAGCAGAGGGAGCA / GCCTCGCTGCCGTCGCCACCAACCCGCCC [ON1/ON2 duplex substrate]” was tested, and the activity (fold luminescence enhancement) was 4.5.
